Data from article PMC11849073, “Specific recognition mechanism of an antibody to sulfated tyrosine and its potential use in biological research” (The Journal of Biological Chemistry, 2025).

What was measured:
[1] = DSF thermal stability of BA8 Fab and mutants; format: physicochemical
Procedure: To assess the effect of sulfated peptide binding on the thermal stability of BA8, we performed differential scanning fluorimetry (DSF) measurements (Fig. 2C) ([25]). The melting temperature (Tm) of BA8 forming a complex with the sulfated peptide was 75.6 °C, whereas the pre-binding Tm was 70.8 °C.
We evaluated the stabilizing effect of peptide binding on each mutant using DSF (Fig. S6).
The DSF thermal stability measurements were performed using a CFX Real-Time PCR System (Bio-Rad). First, 1 μl of 100 × SYPRO Orange stain was diluted with 19 μl of 8.3 μM unbound-BA8 Fab or the solution remaining in the cell after ITC measurement. Next, fluorescence was scanned every minute to obtain melting curves of the solutions as they were heated at 1.0 °C/min. The change in the scanned relative fluorescence unit per unit time was recorded, and the temperature at its peak was considered to be the melting temperature (Tm) ([42]).

[2] = test system: CCR5 on HEK293 cells transfected with CCR5 (C) or CCR5 + TPST1 (C1); experiment: Flow cytometry binding to C and C1 cells; format: cell-based; conditions: cells overexpressing only CCR5 or CCR5 and TPST1
Excerpt: We prepared model cells with transient overexpression to examine whether BA8 can recognize sulfated full-length CCR5. As referred in the Introduction section, previous research has shown that protein tyrosine sulfotransferases (TPSTs) are responsible for tyrosine sulfation ([10], [11], [12]). Those two isoforms of TPST (TPST1 and TPST2) and CCR5 genes were transiently transfected in the following five combinations to HEK293 cells: Negative Control (NC); CCR5 (C); CCR5 + TPST1 (C1); CCR5 + TPST2 (C2); and CCR5 + TPST1 + TPST2 (C12). Each protein contained the following tag sequences at the C-terminus: CCR5 – FLAG, TPST1 – HA, and TPST2 – Myc. The overexpression of each protein was confirmed by western blotting using tag antibodies (Fig. 5, A and B).
We conducted flow cytometry using these cells to confirm that BA8 can recognize sulfated CCR5 expressed on the cell surface (Fig. 5D).
HEK293 cells stored in liquid nitrogen were initiated into the culture by thawing. After the third passage, at 70% confluency, they were transfected with pCAGGS expression vectors containing CCR5, TPST1, or TPST2 using Lipofectamine 3000 Transfection Reagent (ThermoFisher Scientific). To exclude artifacts caused by the transfection operation itself, empty vectors without the objective protein were transfected if the protein was not to be expressed. […]

[3] = test system: sulfated N-terminal peptide of CCR5; experiment: ITC analysis of BA8 Fab (wild type and mutants) with the sulfated peptide; format: binding; conditions: 10 μM Fab in cell, 100 μM sulfated peptide in syringe, PBS, 25 °C
Excerpt: To determine the thermodynamic parameters accompanying the interaction, we performed an ITC analysis (Fig. 2B, Table 2).
To further dissect how molecular recognition occurs, we evaluated the contribution of individual residues of BA8 to the recognition of the sulfated peptide. We analyzed the crystal structure using the PDB PISA server, and we conducted mutation analyses in which the residues predicted to form hydrogen bonds or located at the interface were mutated to alanine (Fig. 3B).
The ITC experiments were performed using a MicroCal PEAQ-ITC (Malvern Panalytical, Malvern, UK). The BA8 Fab fragment antibody, sufficiently dialyzed in PBS, was adjusted to 10 μM for the cells, and the CCR5 N-terminal peptide, dissolved in the dialysate, was adjusted to 100 μM for the syringe. The first injection of 0.5 μl (omitted from the analysis) was followed by 19 injections of 2 μl with 120 s intervals at a constant temperature of 25 °C. The titration syringe was continuously stirred at 750 rpm.
The baselines were smoothly adjusted for the step after each titration saturated and fitted as one set of sites binding in MicroCal PEAQ-ITC Analysis Software (Malvern Panalytical, Malvern, UK).

B1: BA8: rabbit antibody clone from phage display that specifically recognizes the sulfated N-terminal peptide of CCR5 (antibody, V domains shown)
VH: QSLEESGGGLFKPTDTLTLTCTVSGFSLSSYSIRWVRQAPGNGLEWIGAIGSGGNAYYTSWAKSRSTITRNTNENTVTLKMTSLTVADTATYFCARGGINFGIWGPGTLVTVSS
VL: AAVLTQTPSPVSAAVGSTVTINCQSSQSVYSKNWLSWFQQKPGQPPKQLIYSASTLDSGVPSRFSGSGSGTQFTLTISGVQCDDAATYYCQGTYGDASAFGGGTEVVVK
For B1, the “melting temperature (Tm), unbound (pre-binding)” value ([1]; SYPRO Orange, 8.3 μM unbound Fab, heated at 1.0 °C/min) was 70.8 °C, the “melting temperature (Tm) of BA8 forming a complex with the sulfated peptide” value ([1]; SYPRO Orange, solution remaining in the cell after ITC measurement, 1.0 °C/min) was 75.6 °C and the “increase of Tm after forming a complex with the sulfated peptide versus BA8 alone” value ([1]; complex from the ITC measurement) was 4.8 °C. The “binding to C and C1 cells in flow cytometry, in words” value [2] was “slight binding” and the ΔH [3] was -120 kJ/mol.
